The record followed here is US20210363257A1 (Pieris, published 2021).

Test [1] addresses human PD-L1 expressed on cells (human, UniProt Q9NZQ7 19-290). The test can be described thus: cell-based or functional assay.
For test [2], the target named is T1, human CD137 expressed on cells (human, UniProt Q07011 24-255).
T1 construct: whole, on cells; also called Flp-In-CHO::huCD137; NFκB-luc2/CD137 Jurkat cells
The test can be described thus: flow cytometry, Flp-In-CHO::huCD137 cells. As for the experimental part: (§1) The geometric means of the fluorescence intensity were used to calculate EC₅₀ values using nonlinear regression (shared bottom, SLOPE=1).
(§2) 5×10⁴ cells per well were incubated for 1 h in ice-cold PBS containing 5% fetal calf serum (PBS-FCS). A dilution series of the fusion proteins and control antibodies were added to the cells and incubated for 1 h on ice. Cells were washed twice with PBS and then incubated with a goat anti-hIgG Alexa647-labeled antibody for 30 min on ice. Cells were subsequently washed and analyzed using iQue Flow cytometer (Intellicyte Screener). Mean geometric fluorescent signals were plotted and fitted with Graphpad software using nonlinear regression (shared bottom, SLOPE=1).
For orientation: A flow cytometer gives signals particle by particle.

The target of test [3] is T2, cynomolgus PD-L1 expressed on cells (cynomolgus).
T2 construct: whole, on cells; also called Flp-In-CHO::cynoPDL-1
The test can be described thus: flow cytometry, Flp-In-CHO::cynoPDL-1 cells. The method, then:
as §1, §2

Test [4] concerns the target T3, huCD137-His (human CD137 with a C-terminal polyhistidine tag) (human, UniProt Q07011 24-186).
T3 construct: Bought; also called huCD137-His-Bio
The test can be described thus: ELISA, huCD137-His coated, detection anti-NGAL-HRP. As for the experimental part:
(§3) Recombinant huPD-L1-His or cyPD-L1-His (human or cynomolgus PD-L1 with a C-terminal polyhistidine tag, R&D Systems or Sino Biologics) at the concentration of 1 μg/mL in PBS was coated overnight on microtiter plates at 4° C. After washing with PBS-0.05% T (PBS supplemented with 0.05% (v/v) Tween 20), the plates were blocked with 2% BSA (w/v) in PBS-0.1% T (PBS supplemented with 0.1% (v/v) Tween 20) for 1 h at room temperature. […] Bound molecules under study were detected by incubation with 1:5000 diluted anti-human IgG Fc-HRP (Jackson Laboratory) in PBS-0.1% T-2% BSA. After an additional wash step, fluorogenic HRP substrate (QuantaBlu, Thermo) was added to each well and the fluorescence intensity was detected using a fluorescence microplate reader.
The same ELISA setup was also employed to determine the binding potency of fusion proteins to CD137, where huCD137-His (human CD137 with C-terminal polyhistidine tag, R&D Systems) or cyCD137-Fc (cynomolgus CD137 C-terminally fused to Fc) was instead coated on a microtiter plate. The testing agents were similarly titrated and bound agents were detected via anti-NGAL-HRP.
A general note: In an ELISA, binding on a coated surface is turned into a signal by an enzyme label.

For test [5], the target named is T4, cyPD-L1-His (cynomolgus PD-L1 with a C-terminal polyhistidine tag) (cynomolgus).
T4 construct: Bought
The test can be described thus: ELISA, cyPD-L1-His coated, detection anti-human IgG Fc-HRP. As for the experimental part:
as §3

Test [6] addresses T5, huPD-L1-Fc (recombinant human PD-L1 Fc fusion) (human, UniProt Q9NZQ7 19-239).
T5 construct: Bought; also called tracer huPD-L1-Fc
The test can be described thus: competitive ELISA, huPD-1-His coated, 15 nM huPD-L1-Fc tracer, binder titrated. The method, then:
Recombinant huPD-1-His (Acrobiosystems) in PBS (1 μg/mL) was coated overnight on microtiter plates at 4° C. The plates were washed five times after each incubation step with 100 μL PBS-0.05% T (PBS supplemented with 0.05% (v/v) Tween 20). The plates were blocked with 2% BSA (w/v) in PBS-0.1% T (PBS supplemented with 0.1% (v/v) Tween 20) for 1 h at room temperature and subsequently washed again. […] The mixtures of fusion proteins and the tracer were added to the plates and incubated for 20 min at room temperature following by five washing steps with 100 μL PBS-0.05% T. Subsequently, a 1:5000 dilution of goat-anti human IgG-Fc HRP (Jackson) was added to the wells and incubated for 1 h. After an additional wash step, fluorogenic HRP substrate (QuantaBlu, Thermo) was added to each well, and the fluorescence intensity was detected using a fluorescence microplate reader.

Test [7] deals with T6, huPD-L1-His (human PD-L1 with a C-terminal polyhistidine tag) (human, UniProt Q9NZQ7 19-239).
T6 construct: Bought; also called biotinylated huPD-L1-His
The test can be described thus: dual-binding ELISA, huPD-L1-His coated, binder titrated, detection with biotinylated huCD137-His; PD-L1 capture, CD137 detection (simultaneous binding of both targets). As for the experimental part: (§4) Recombinant huPD-L1-His (R&D Systems) in PBS (1 μg/mL) was coated overnight on microtiter plates at 4° C. The plates were washed five times after each incubation step with 100 μL PBS-0.05% T. The plates were blocked with 2% BSA (w/v) in PBS-0.1% T for 1 h at room temperature and subsequently washed again. Different concentrations of tested fusion proteins were added to the wells and incubated for 1 h at room temperature, followed by a wash step. […] After washing, a 1:5000 dilution of ExtrAvidin-HRP (Sigma-Aldrich) in PBS-0.1% T-2% BSA was added to the wells and incubated for 1 h. After an additional wash step, fluorogenic HRP substrate (QuantaBlu, Thermo) was added to each well, and the fluorescence intensity was detected using a fluorescence microplate reader.

The target of test [8] is T6, huPD-L1-His (human PD-L1 with a …). The test can be described thus: dual-binding ELISA, huPD-L1-His coated, binder titrated, detection with biotinylated huCD137-His. As for the experimental part:
as §4

T6 sequence (Q9NZQ7 19-239 limits assumed): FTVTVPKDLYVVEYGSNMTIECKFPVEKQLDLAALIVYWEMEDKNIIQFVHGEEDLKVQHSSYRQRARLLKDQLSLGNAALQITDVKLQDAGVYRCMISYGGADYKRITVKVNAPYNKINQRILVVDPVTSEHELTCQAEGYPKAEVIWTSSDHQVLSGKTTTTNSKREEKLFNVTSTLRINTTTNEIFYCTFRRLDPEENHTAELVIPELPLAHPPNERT
T5 sequence (Q9NZQ7 19-239 limits assumed): as above
T1 sequence (Q07011 24-255): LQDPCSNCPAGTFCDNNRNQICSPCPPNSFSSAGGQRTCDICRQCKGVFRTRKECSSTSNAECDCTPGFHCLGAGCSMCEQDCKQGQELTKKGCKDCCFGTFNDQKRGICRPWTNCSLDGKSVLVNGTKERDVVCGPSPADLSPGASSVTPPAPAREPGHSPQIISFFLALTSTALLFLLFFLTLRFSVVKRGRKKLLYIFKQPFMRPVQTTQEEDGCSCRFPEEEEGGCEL
T3 sequence (Q07011 24-186 limits assumed): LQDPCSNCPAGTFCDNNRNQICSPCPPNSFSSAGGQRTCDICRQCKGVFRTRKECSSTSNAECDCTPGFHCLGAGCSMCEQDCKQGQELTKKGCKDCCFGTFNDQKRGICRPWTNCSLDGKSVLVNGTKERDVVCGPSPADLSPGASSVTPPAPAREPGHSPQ
Sequence of human PD-L1 expressed on cells (Q9NZQ7 19-290): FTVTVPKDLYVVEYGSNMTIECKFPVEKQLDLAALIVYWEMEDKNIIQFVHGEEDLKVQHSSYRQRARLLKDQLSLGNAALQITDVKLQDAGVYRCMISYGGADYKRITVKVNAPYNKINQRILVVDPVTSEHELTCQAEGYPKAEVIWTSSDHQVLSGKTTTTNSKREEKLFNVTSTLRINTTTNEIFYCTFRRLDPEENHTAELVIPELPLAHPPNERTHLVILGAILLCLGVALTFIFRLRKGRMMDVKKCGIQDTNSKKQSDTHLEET

B1: fusion protein SEQ ID NOs: 90 and 87 (bispecific antibody, human IgG4 S228P, kappa, F234A L235A)
heavy: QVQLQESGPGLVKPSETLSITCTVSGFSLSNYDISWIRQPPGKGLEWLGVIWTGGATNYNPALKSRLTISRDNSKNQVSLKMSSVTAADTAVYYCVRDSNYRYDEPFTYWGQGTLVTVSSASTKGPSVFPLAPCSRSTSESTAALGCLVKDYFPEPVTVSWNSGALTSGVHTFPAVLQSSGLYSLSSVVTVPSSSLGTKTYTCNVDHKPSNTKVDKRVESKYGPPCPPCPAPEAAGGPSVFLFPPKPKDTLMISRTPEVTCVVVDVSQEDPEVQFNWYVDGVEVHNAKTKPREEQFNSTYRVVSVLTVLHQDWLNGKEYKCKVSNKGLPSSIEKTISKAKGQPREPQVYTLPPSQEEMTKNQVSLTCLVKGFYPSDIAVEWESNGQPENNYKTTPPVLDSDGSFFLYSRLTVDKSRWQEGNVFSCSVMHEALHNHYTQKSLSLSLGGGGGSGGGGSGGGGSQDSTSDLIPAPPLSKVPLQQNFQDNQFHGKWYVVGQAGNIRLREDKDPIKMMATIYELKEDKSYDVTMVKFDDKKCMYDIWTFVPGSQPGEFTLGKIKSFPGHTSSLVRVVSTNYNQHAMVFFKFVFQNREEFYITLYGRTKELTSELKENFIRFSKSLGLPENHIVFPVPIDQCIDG
light: EIVLTQSPDTLSVTPKEKVTLTCRASQSIGTNIHWFQQKPGQSPKLLIKYASESISGVPSRFSGSGSGTDFTLTINSVEAEDAATYYCQQSNSWPYTFGQGTKLEIKRTVAAPSVFIFPPSDEQLKSGTASVVCLLNNFYPREAKVQWKVDNALQSGNSQESVTEQDSKDSTYSLSSTLTLSKADYEKHKVYACEVTHQGLSSPVTKSFNRGEC
notes: Bivalent to CD137
For the molecule B1, the “EC50 [nM] (PD-1/PD-L1 blockade bioassay, NFAT-RE-mediated luminescence)” value in test [1] amounted to 0.49 nM. Further, the EC50 in test [2] was 3.74 nM; in test [3], 4.48 nM; in test [4] it was 0.28 nM; in test [5], 0.13 nM; in test [7], 0.58 nM. Moreover, the IC50 in test [6] is 2.3 nM.

B2: fusion protein SEQ ID NOs: 86 and 91 (bispecific antibody, human IgG4 S228P, kappa, F234A L235A)
heavy: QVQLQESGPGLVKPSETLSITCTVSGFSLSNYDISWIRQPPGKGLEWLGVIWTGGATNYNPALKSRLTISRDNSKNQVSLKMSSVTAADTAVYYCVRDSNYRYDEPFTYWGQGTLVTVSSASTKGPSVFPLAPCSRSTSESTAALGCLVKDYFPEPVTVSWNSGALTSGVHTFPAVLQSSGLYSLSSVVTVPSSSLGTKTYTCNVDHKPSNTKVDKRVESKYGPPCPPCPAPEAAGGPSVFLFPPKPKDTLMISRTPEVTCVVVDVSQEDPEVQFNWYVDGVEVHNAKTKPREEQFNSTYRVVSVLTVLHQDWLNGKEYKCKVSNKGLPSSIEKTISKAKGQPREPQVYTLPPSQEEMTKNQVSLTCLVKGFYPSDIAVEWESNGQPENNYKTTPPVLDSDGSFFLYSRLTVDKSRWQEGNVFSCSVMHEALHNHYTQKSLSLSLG
light: EIVLTQSPDTLSVTPKEKVTLTCRASQSIGTNIHWFQQKPGQSPKLLIKYASESISGVPSRFSGSGSGTDFTLTINSVEAEDAATYYCQQSNSWPYTFGQGTKLEIKRTVAAPSVFIFPPSDEQLKSGTASVVCLLNNFYPREAKVQWKVDNALQSGNSQESVTEQDSKDSTYSLSSTLTLSKADYEKHKVYACEVTHQGLSSPVTKSFNRGECGGGGSGGGGSGGGGSQDSTSDLIPAPPLSKVPLQQNFQDNQFHGKWYVVGQAGNIRLREDKDPIKMMATIYELKEDKSYDVTMVKFDDKKCMYDIWTFVPGSQPGEFTLGKIKSFPGHTSSLVRVVSTNYNQHAMVFFKFVFQNREEFYITLYGRTKELTSELKENFIRFSKSLGLPENHIVFPVPIDQCIDG
notes: Antibody-lipocalin mutein fusion, IgG4 S228P backbone; Bivalent to CD137
As to B2, the EC50 stood at 6.48 nM in test [2]; 1.41 nM in test [3]; 0.57 nM in test [4]; 0.18 nM in test [5]; 0.59 nM in test [8]. The IC50 in test [6] was 3 nM.

As a reminder, the EC50 is the concentration needed to bring the measured effect to its halfway point. Low values mean a more potent agent, high ones a less potent agent. Broadly, the IC50 is the midpoint of a concentration-inhibition curve.
